Each block holds one sequence with its values, some of them ahead of it.
Key:
[1] = target: HLA-A*11:01; assay: IEDB peptide-MHC binding, purified MHC/competitive/radioactivity; ≥ and ≤ were set here for values at or beyond the usual limits of such assays; conditions: source organism: Rhinovirus C
[2] = target: HLA-B*57:01; assay: IEDB peptide-MHC binding, purified MHC/direct/fluorescence; filed as Kd, often an IC50 or EC50 that approximates it; ≥ and ≤ were set here for values at or beyond the usual limits of such assays; conditions: source organism: Mycobacterium tuberculosis str. Haarlem
[3] = target: HLA-B*39:01; assay: as above; conditions: source organism: Mycobacterium tuberculosis str. Haarlem
[4] = target: HLA-B*46:01; assay: as above; conditions: source organism: Mycobacterium tuberculosis str. Haarlem
[5] = target: HLA-A*03:01; assay: as above; conditions: source organism: Mycobacterium tuberculosis str. Haarlem
[6] = target: HLA-A*02:12; assay: as above; conditions: source organism: Mycobacterium tuberculosis str. Haarlem
[7] = target: HLA-B*51:01; assay: as above; conditions: source organism: Mycobacterium tuberculosis str. Haarlem
[8] = target: HLA-B*27:03; assay: as above; conditions: source organism: Mycobacterium tuberculosis str. Haarlem
[9] = target: HLA-A*02:06; assay: as above; conditions: source organism: Mycobacterium tuberculosis str. Haarlem
[10] = target: HLA-B*18:01; assay: as above; conditions: source organism: Mycobacterium tuberculosis str. Haarlem
[11] = target: HLA-A*24:03; assay: as above; conditions: source organism: Mycobacterium tuberculosis str. Haarlem
[12] = target: HLA-A*02:01; assay: as above; conditions: source organism: Mycobacterium tuberculosis str. Haarlem
[13] = target: HLA-A*29:02; assay: as above; conditions: source organism: Mycobacterium tuberculosis str. Haarlem
[14] = target: HLA-A*26:01; assay: as above; conditions: source organism: Mycobacterium tuberculosis str. Haarlem
[15] = target: HLA-B*44:02; assay: IEDB peptide-MHC binding, purified MHC/competitive/fluorescence; filed as Kd, often an IC50 or EC50 that approximates it; ≥ and ≤ were set here for values at or beyond the usual limits of such assays; conditions: source organism: Mycobacterium tuberculosis variant bovis BCG str. Pasteur 1173P2
[16] = target: HLA-B*08:01; assay: as above; conditions: source organism: Mycobacterium tuberculosis variant bovis BCG str. Pasteur 1173P2
[17] = target: HLA-A*01:01; assay: as above; conditions: source organism: Mycobacterium tuberculosis variant bovis BCG str. Pasteur 1173P2
[18] = target: HLA-B*58:01; assay: as above; conditions: source organism: Mycobacterium tuberculosis variant bovis BCG str. Pasteur 1173P2
[19] = target: HLA-B*14:02; assay: as above; conditions: source organism: Mycobacterium tuberculosis variant bovis BCG str. Pasteur 1173P2
[20] = target: HLA-A*23:01; assay: as above; conditions: source organism: Mycobacterium tuberculosis variant bovis BCG str. Pasteur 1173P2
[21] = target: HLA-B*27:05; assay: as above; conditions: source organism: Mycobacterium tuberculosis variant bovis BCG str. Pasteur 1173P2
[22] = target: HLA-A*66:01; assay: as above; conditions: source organism: Mycobacterium tuberculosis variant bovis BCG str. Pasteur 1173P2
[23] = target: HLA-B*40:01; assay: as above; conditions: source organism: Mycobacterium tuberculosis variant bovis BCG str. Pasteur 1173P2
[24] = target: HLA-A*30:02; assay: as above; conditions: source organism: Mycobacterium tuberculosis variant bovis BCG str. Pasteur 1173P2
[25] = target: HLA-A*11:01; assay: as above; conditions: source organism: Mycobacterium tuberculosis variant bovis BCG str. Pasteur 1173P2
[26] = target: HLA-B*53:01; assay: as above; conditions: source organism: Mycobacterium tuberculosis variant bovis BCG str. Pasteur 1173P2
[27] = target: HLA-A*30:01; assay: as above; conditions: source organism: Mycobacterium tuberculosis variant bovis BCG str. Pasteur 1173P2
[28] = target: HLA-B*44:02; assay: IEDB peptide-MHC binding, purified MHC/competitive/fluorescence; ≥ and ≤ were set here for values at or beyond the usual limits of such assays; conditions: source organism: Homo sapiens
[29] = target: HLA-A*24:02; assay: as above; conditions: source organism: Homo sapiens
[30] = target: HLA-B*35:01; assay: as above; conditions: source organism: Homo sapiens
[31] = target: HLA-B*08:01; assay: as above; conditions: source organism: Homo sapiens
[32] = target: HLA-A*01:01; assay: as above; conditions: source organism: Homo sapiens
[33] = target: HLA-B*58:01; assay: as above; conditions: source organism: Homo sapiens
[34] = target: HLA-B*14:02; assay: as above; conditions: source organism: Homo sapiens
[35] = target: HLA-A*03:01; assay: as above; conditions: source organism: Homo sapiens
[36] = target: HLA-B*51:01; assay: as above; conditions: source organism: Homo sapiens
[37] = target: HLA-B*44:03; assay: as above; conditions: source organism: Homo sapiens
[38] = target: HLA-B*37:01; assay: as above; conditions: source organism: Homo sapiens
[39] = target: HLA-B*18:01; assay: as above; conditions: source organism: Homo sapiens
[40] = target: HLA-A*25:01; assay: as above; conditions: source organism: Homo sapiens
[41] = target: HLA-A*68:02; assay: as above; conditions: source organism: Homo sapiens
[42] = target: HLA-A*02:01; assay: as above; conditions: source organism: Homo sapiens
[43] = target: HLA-B*07:02; assay: as above; conditions: source organism: Homo sapiens
[44] = target: HLA-A*11:01; assay: as above; conditions: source organism: Homo sapiens
[45] = target: HLA-B*53:01; assay: as above; conditions: source organism: Homo sapiens
[46] = target: HLA-B*40:02; assay: as above; conditions: source organism: Homo sapiens
[47] = target: HLA-A*31:01; assay: as above; conditions: source organism: Homo sapiens
[48] = target: HLA-A*29:02; assay: as above; conditions: source organism: Homo sapiens

Sequence: KYFNINYYK
- IC50 [1]: 0.2 µM

Sequence: RVACRDVEV
- Kd [2]: ≥ 20 µM
- Kd [3]: ≥ 20 µM
- Kd [4]: ≥ 20 µM
- Kd [5]: ≥ 20 µM
- Kd [6]: 0.032 µM
- Kd [7]: ≥ 20 µM
- Kd [8]: ≥ 20 µM
- Kd [9]: 0.002 µM
- Kd [10]: ≥ 20 µM
- Kd [11]: ≥ 20 µM
- Kd [12]: 0.254 µM
- Kd [13]: ≥ 20 µM
- Kd [14]: ≥ 20 µM
- Kd [15]: ≥ 5 µM
- Kd [16]: ≥ 5 µM
- Kd [17]: ≥ 5 µM
- Kd [18]: ≥ 5 µM
- Kd [19]: 3 µM
- Kd [20]: ≥ 5 µM
- Kd [21]: ≥ 5 µM
- Kd [22]: ≥ 5 µM
- Kd [23]: ≥ 5 µM
- Kd [24]: ≥ 5 µM
- Kd [25]: ≥ 5 µM
- Kd [26]: ≥ 5 µM
- Kd [27]: ≥ 5 µM

- IC50 [28]: ≥ 20 µM
- IC50 [29]: 2.61 µM
Sequence: FYYNAFHW

- IC50 [30]: 0.0205 µM
- IC50 [31]: ≥ 20 µM
- IC50 [32]: ≥ 20 µM
- IC50 [33]: ≥ 20 µM
- IC50 [29]: ≥ 20 µM
- IC50 [34]: ≥ 20 µM
- IC50 [35]: ≥ 20 µM
- IC50 [36]: ≥ 20 µM
- IC50 [37]: ≥ 20 µM
- IC50 [38]: ≥ 20 µM
- IC50 [39]: 2.77 µM
- IC50 [40]: 1.29 µM
- IC50 [41]: ≥ 20 µM
- IC50 [42]: ≥ 20 µM
- IC50 [43]: ≥ 20 µM
- IC50 [44]: 0.833 µM
- IC50 [45]: ≥ 20 µM
- IC50 [46]: ≥ 20 µM
- IC50 [47]: ≥ 20 µM
- IC50 [48]: 0.0053 µM
Sequence: MVRVLTVIKEY

From the Immune Epitope Database (IEDB)
